Biological target: endogenous human tissue factor on MDA-MB-231 breast cancer cells (Homo sapiens (MDA-MB-231 cells), UniProt P13726)
Test: flow cytometry on cells

endogenous human tissue factor on MDA-MB-231 breast cancer cells, sequence (P13726 33-295): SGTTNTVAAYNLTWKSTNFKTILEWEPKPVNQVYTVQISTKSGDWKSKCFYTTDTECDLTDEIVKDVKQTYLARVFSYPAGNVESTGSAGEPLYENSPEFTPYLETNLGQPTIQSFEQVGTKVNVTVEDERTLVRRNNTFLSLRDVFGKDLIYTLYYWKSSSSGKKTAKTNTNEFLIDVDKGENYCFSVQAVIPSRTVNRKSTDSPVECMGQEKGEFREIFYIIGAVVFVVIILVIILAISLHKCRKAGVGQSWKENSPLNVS

- cell binding (% to 10H10): 100%
B1: chimeric mouse/human version of 10H10 mAb (antibody, V domains shown)
VH: QVHLQQSGAELMKPGASVKISCKASGYTFITYWIEWVKQRPGHGLEWIGDILPGSGSTNYNENFKGKATFTADSSSNTAYMQLSSLTSEDSAVYYCARSGYYGNSGFAYWGQGTLVTVSA
VL: DIVMTQSPSSLTVTAGEKVTMSCKSSQSLLSSGNQKNYLTWYQQIPGQPPKLLIYWASTRESGVPDRFTGSGSGTDFTLTINSVQAEDLAVYYCQNDYTYPLTFGAGTKLELK
